Tests used:
Test in all cases: cell-based or functional assay
[1] = molecular target: T1, KDR (human, UniProt P35968 20-1356)
[2] = molecular target: T1, KDR; remark: listed apart in the source
[3] = molecular target: T1, KDR; remark: listed apart in the source
[4] = molecular target: T1, KDR; remark: listed apart in the source
[5] = molecular target: T1, KDR; remark: listed apart in the source

T1 sequence (P35968 20-1356): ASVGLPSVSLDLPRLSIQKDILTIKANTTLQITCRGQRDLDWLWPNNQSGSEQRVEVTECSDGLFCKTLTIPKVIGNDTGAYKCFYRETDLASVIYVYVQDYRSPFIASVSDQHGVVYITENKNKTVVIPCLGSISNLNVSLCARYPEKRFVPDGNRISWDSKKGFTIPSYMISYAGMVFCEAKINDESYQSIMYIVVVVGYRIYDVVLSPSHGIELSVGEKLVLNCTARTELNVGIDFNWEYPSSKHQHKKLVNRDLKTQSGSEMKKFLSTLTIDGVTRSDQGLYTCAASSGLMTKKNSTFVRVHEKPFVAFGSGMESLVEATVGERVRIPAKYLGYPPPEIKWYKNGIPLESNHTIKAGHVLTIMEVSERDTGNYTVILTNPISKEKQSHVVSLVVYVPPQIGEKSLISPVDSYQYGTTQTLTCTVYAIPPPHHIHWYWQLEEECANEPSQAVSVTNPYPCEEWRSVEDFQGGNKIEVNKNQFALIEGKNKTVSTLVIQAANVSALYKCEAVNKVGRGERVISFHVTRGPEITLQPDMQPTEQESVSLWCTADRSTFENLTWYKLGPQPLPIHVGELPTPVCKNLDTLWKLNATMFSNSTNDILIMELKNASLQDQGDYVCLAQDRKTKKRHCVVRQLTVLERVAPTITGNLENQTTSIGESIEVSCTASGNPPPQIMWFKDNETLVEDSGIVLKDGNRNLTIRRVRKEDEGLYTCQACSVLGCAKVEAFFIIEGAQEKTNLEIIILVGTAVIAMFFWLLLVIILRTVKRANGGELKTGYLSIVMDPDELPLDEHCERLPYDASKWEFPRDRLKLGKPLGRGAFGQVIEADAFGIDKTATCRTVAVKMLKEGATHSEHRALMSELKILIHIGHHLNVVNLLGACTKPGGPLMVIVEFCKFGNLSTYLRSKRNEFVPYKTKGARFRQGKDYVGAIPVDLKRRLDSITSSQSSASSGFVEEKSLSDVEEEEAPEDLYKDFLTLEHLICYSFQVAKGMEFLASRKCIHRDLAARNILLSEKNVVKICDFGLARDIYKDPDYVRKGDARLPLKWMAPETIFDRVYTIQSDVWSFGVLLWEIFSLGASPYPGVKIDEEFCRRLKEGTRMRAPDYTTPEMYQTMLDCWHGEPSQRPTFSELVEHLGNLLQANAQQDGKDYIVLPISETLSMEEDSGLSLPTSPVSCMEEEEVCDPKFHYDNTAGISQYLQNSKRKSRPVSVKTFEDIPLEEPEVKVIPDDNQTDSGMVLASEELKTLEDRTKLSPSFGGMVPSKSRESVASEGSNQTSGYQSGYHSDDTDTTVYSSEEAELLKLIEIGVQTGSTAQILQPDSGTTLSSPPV

Binder	% Inhibition of VEGF165-mediated 6-keto Prostaglandin F1α release at 133 nM Antibody Concentration, Average [1]	% Inhibition of VEGF165-mediated 6-keto Prostaglandin F1α release at 133 nM Antibody Concentration, N = 1 [1]	% Inhibition of VEGF165-mediated 6-keto Prostaglandin F1α release at 133 nM Antibody Concentration, N = 2 [1]	Activity at 133 nM (% Inhibition), 24-hour Pre-incubation at 37° C., Average [2]	Activity at 133 nM (% Inhibition), 24-hour Pre-incubation at 37° C., N = 1 [2]	Activity at 133 nM (% Inhibition), 24-hour Pre-incubation at 37° C., N = 2 [2]	Activity at 133 nM (% Inhibition), 1-hour Pre-incubation at 4° C., Average [3]	Activity at 133 nM (% Inhibition), 1-hour Pre-incubation at 4° C., N = 1 [3]	Activity at 133 nM (% Inhibition), 1-hour Pre-incubation at 4° C., N = 2 [3]	% of Max VEGF KDR pTyr Activity (at 133 nM antibody concentration), Average [4]	% of Max VEGF KDR pTyr Activity (at 133 nM antibody concentration), N = 1 [4]	% of Max VEGF KDR pTyr Activity (at 133 nM antibody concentration), N = 2 [4]	Activity at 133 nM Antibody Concentration (% Survival Inhibition), Average [5]	Activity at 133 nM Antibody Concentration (% Survival Inhibition), N = 1 [5]	Activity at 133 nM Antibody Concentration (% Survival Inhibition), N = 2 [5]
27A3 (antibody, V domains shown) VH: QLQLQESGPGLVKPSETLSLTCTVSGGSISSRSDYWGWIRQPPGKGLEWIGTIYYSGDTYYNPSLKSRVTISVDTSKNQFSLKLSSVTAADTAVYYCARQQLVLYYFDYWGQGTLVTVSS VL: EIVLTQSPGTLSLSPGERATLSCRASQSVSSSYLAWYQQKPGQAPRLLIYATSNRATGIPDRFSGSGSGTDFTLTISRLEPEDFAVYYCQQHGSSPPLTFGGGTKVEIK	88%	54%	121%	9%	19%	0%	67%	63%	72%	19%	22%	17%	83%	86%	81%
27D10 (antibody, V domains shown) VH: QLQLQESGPGLVKPSETLSLTCTVSGGSISSRSDYWGWIRQPPGKGLEWIGTIYYSGSTFYNPSLKSRVTISVDTSKNQFSLKLSSVTAADTAVYYCARQQLVLYYFDYWGQGTLVTVSS VL: not shown	84%	56%	111%	8%	19%	-4%	65%	60%	69%	18%	19%	17%	76%	84%	68%
33C3 (antibody, V domains shown) VH: QVQLVESGGGLVKPGESLRLSCAASGFTFSDYYMSWIRQAPGKGLEWVSYISHGGSTIYYADSVKGRFTISRDNAKNSLYLQMNSLRVEDTAVYFCARDDFWSGYYFNWFDPWGQGALVTVSS VL: DIQMTQYPLSLSASVGDRVTITCRASQSISSFLNWYHQKPGKAPKLLIYGTSSLQSGVPSRFSGSGSGTDFTLTISSLQPEDFATYYCQQTYSIPLTFGGGTNVEIK	142%	106%	178%	67%	45%	88%	80%	78%	83%	8%	6%	10%	103%	104%	102%
29F7 (antibody, V domains shown) VH: QVQLVQSGAEVKKPGASVKVSCKASGYTFTSYDINWVRQATGQGLEWMGWMNPNSGKTGYAQKFQGRVTMTRSTSISTAYMELSSLRSEDTAVYYCARGGYSNLGWFDPWGQGTLVTVSS VL: DIQMTQSPSSVFASVGDRVTITCRASQGISTWLAWYQQKPGKAPKFLIYAASSLQSGVPSRFSGSGSGTDFTLTISSLQPDDFATYYCQQANNFPFTFGPGTKVDIK	19%	1%	38%	26%	23%	30%	44%	36%	52%	16%	19%	12%	-12%	3%	-27%
21H9 (antibody, V domains shown) VH: QVPLVESGGGVVQPGRSLRLSCAASGFTFSSYGMHWVRQAPGKGLEWVAVIWYDGSNKYYADSVQGRFTISRDNSKNTLYLQMNSLRAEDTAVYYCARGVTMVRGLIIARYYYGLDVWGQGTTVTVSS VL: DIVMTQTPLSSPVTFGQPASISCRSSQSLVHSDGNTYLSWLQQRPGQPPRLLIYKISNRFFGVPDRFSGSGAGTDFTLKISRVEAEDVGLYYCMQSTQFPLTFGGGTKVEIK	33%	5%	61%	-1%	-3%	2%	26%	21%	31%	15%	16%	13%	-18%	-20%	-16%
